Results from US6528487B1, “Peptide inhibitors of inflammation mediated by selectins” (Centocor, Inc., priority 1991, dated 2003).
Values joined by “and” are separate entries in the source; they are usually repeats but may differ in a detail not shown here. Equal values may be shown once. Non-standard residues stand in square brackets, D forms with d. No end group written: not given here. *: point of attachment. Fmoc = O=C(OCC1c2ccccc2-c2ccccc21)*

T1: GMP-140 (Homo sapiens, UniProt P16109)
T1 construct: from tissue; host or cells: human platelets (outdated platelet packs from a blood bank)
T1 sequence (P16109 42-830): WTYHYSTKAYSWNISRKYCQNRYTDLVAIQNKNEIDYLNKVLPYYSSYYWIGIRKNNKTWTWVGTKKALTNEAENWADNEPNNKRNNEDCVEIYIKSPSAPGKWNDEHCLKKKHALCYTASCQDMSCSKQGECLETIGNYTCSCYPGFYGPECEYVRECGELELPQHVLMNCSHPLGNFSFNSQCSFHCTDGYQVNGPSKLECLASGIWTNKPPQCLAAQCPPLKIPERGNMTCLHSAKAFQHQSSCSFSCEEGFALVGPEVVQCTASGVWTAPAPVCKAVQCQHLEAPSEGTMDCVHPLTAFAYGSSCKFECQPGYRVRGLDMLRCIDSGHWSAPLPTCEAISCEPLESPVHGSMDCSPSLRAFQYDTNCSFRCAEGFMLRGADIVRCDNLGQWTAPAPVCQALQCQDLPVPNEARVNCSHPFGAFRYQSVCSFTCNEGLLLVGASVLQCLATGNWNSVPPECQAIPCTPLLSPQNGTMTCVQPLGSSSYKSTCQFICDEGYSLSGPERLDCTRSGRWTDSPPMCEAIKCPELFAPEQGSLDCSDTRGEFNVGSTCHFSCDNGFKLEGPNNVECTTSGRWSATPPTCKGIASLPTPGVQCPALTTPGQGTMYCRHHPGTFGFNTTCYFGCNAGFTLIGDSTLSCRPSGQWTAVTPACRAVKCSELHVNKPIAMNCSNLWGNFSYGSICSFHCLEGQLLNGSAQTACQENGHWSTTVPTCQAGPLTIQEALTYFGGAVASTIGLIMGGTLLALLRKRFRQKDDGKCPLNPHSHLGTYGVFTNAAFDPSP

B1: RkIGGIWTWV-NH2 (peptide)
peptide: R[dK]IGGIWTWV-NH2
modifications: N-terminus assumed
SMILES: CC[C@H](C)[C@H](NC(=O)CNC(=O)CNC(=O)[C@@H](NC(=O)[C@@H](CCCCN)NC(=O)[C@@H](N)CCCNC(=N)N)[C@@H](C)CC)C(=O)N[C@@H](Cc1c[nH]c2ccccc12)C(=O)N[C@H](C(=O)N[C@@H](Cc1c[nH]c2ccccc12)C(=O)N[C@H](C(N)=O)C(C)C)[C@@H](C)O
B2: FMOC-NNKTW-NH2 (peptide)
peptide: Fmoc-NNKTW-NH2
SMILES: C[C@@H](O)[C@H](NC(=O)[C@H](CCCCN)NC(=O)[C@H](CC(N)=O)NC(=O)[C@H](CC(N)=O)NC(=O)OCC1c2ccccc2-c2ccccc21)C(=O)N[C@@H](Cc1c[nH]c2ccccc12)C(N)=O
B3: r…-NH2 (peptide)
peptide: [dR]KIGGIWTWV-NH2
modifications: N-terminus assumed
SMILES: CC[C@H](C)[C@H](NC(=O)CNC(=O)CNC(=O)[C@@H](NC(=O)[C@H](CCCCN)NC(=O)[C@H](N)CCCNC(=N)N)[C@@H](C)CC)C(=O)N[C@@H](Cc1c[nH]c2ccccc12)C(=O)N[C@H](C(=O)N[C@@H](Cc1c[nH]c2ccccc12)C(=O)N[C@H](C(N)=O)C(C)C)[C@@H](C)O

What was measured:
GMP-140 = target: T1, GMP-140; assay: Inhibition of neutrophil binding to GMP-140 coated wells; type: cell-based; settings: human neutrophils, immobilized GMP-140
Description: Peptides can be screened for their ability to inhibit adhesion to cells, for example, neutrophil adhesion to purified GMP-140 immobilized on plastic wells, using the assay described by Geng, et al., Nature 343, 757-760 (1990).
Human neutrophils are isolated from heparinized whole blood by density gradient centrifugation on Mono-Poly resolving media, Flow laboratories. Neutrophil suspensions are greater than 98% pure and greater than 95% viable by trypan blue exclusion. For adhesion assays, neutrophils are suspended at a concentration of 2×10^6 cells/mL in Hanks' balanced salt solution containing 1.26 mM Ca^2+ and 0.81 mM Mg^2+ (HBSS, Gibco) with 5 mg/mL human serum albumin (HBSS/HSA). Adhesion assays are conducted in triplicate in 96-well microtiter plates, Corning, incubated at 4° C. overnight with 50 microliters of various protein solutions.
GMP-140 is isolated from human platelet lysates by immunoaffinity chromatography on antibody S12-Sepharose™ and ion-exchange chromatography on a Mono-Q™ column (FLPC, Pharmacia Fine Chemicals, as follows.
GMP-140 is plated at 5 micrograms/mL and the control proteins: human serum albumin (Alb), platelet glycoprotein Iib/IIIha (Iib), von Willebrand factor (vWF), fibrinogen (FIB), thrombomodulin™, gelatin (GEL) or human serum (HS), are added at 50 micrograms/mL. All wells are blocked for 2 h at 22° C. with 300 microliters HBSS containing 10 mg/mL HSA, then ashed three times with HBSS containing 0.1% Tween-20 and once with HBSS. Cells (2×10^5 per well are added to the wells and incubated at 22° C. for 20 min. The wells are then filled with HGSS/HSA, sealed with acetate tape (Dynatech), and centrifuged inverted at 150 g for 5 min. After discarding nonadherent cells and supemates, the contents of each well are solubilized with 200 microliters of 0.5% hexadecyltrimethylammonium bromide, Sigma, in 50 mM potassium phosphate, pH 6.0, and assayed for myeloperoxidase activity, Ley, et al., Blood 73, 1324-1330 (1989). The number of cells bound is derived from a standard curve of myeloperoxidase activity versus numbers of cells. Under all assay conditions, the cells release less than 5% of total myeloperoxidase and lactate dehydrogenase. Inhibition is read as a lower percent adhesion, so that a value of 5% means that 95% of the specific adhesion was inhibited.
Binding of various peptides to GMP-140 coated wells, as described above, were compared.
Binding of the peptides at various concentrations, ranging from 0.05 to 1 mM were compared.
A 5 μg/mL solution of GMP-140 in HBSS (buffer) is prepared. 50 μL is pipetted per well with the exception of three wells (A10 to A12) and the plate is stored overnight at 0° C. to 4° C. The liquids are removed by aspiration and 300 μL of 5 mg/mL human serum albumin (HSA)/HBSS is placed in the wells coated with GMP-140 plus the three non-coated wells to be used as control wells. The plate is allowed to incubate at room temperature for two hours. The HSA/HBSS solution is removed and the wells washed three times with 300 μL/well of HBSS. The third 300 μL wash of HBSS is left in each well and the plate is kept at room temperature until it is used.
Eight to ten mL of fresh human blood collected in heparinized tubes is carefully layered over 5 mL of the Mono-Poly Resolving Medium in 15 mL polypropylene centrifuge tubes. The tubes are centrifuged for 30 minutes at room temperature and 1400 to 1600 rpm. The tubes are rotated 180° and centrifuged for another 30 minutes under the same conditions. The top plasma layer and first cellular layer of leukocytes are drawn off. The second cellular layer of neutrophils is harvested (usually 2 to 3 mL per tube) and is placed in a clean 15 mL centrifuge tube. This is then underlayered with 1.5 mL of fresh resolving medium and spun at 2000 rpm for 15 minutes at room temperature. This is done to further purify the neutrophils from residual red blood cells. […]

[1] = target: GMP-140 receptors on the surface of leukocytes (human); assay: neutrophil adhesion to GMP-140 coated wells, peptide preincubated with neutrophils, myeloperoxidase read-out

Molecule	Percent inhibition of neutrophil binding to GMP-140 (GMP-140; peptide concentration 0.1 mM)	Percent inhibition of neutrophil binding to GMP-140 (GMP-140; peptide concentration 1.0 mM)	percent inhibition of neutrophil binding to GMP-140 at 0.1 mM peptide [1]	percent inhibition of neutrophil binding to GMP-140 at 0.5 mM peptide [1]	percent inhibition of neutrophil binding to GMP-140 at 1.0 mM peptide [1]
RKNNKTWTWV (Synthetic inhibitory peptide) [Arginyl-lysyl-asparaginyl-asparaginyl-lysyl-threonyl-tryptophyl-hreonyl-tryptophyl-valine]	14%	35%	–	–	–
Arg-Lys-Val-Asn-Asn-Val-Trp-NH2 (RKVNNVW-NH2)	–	17%	–	–	–
Cys-Arg-Lys-Asn-Asn-Lys-Thr-Trp-Thr-Trp-Val-NH2 (CRKNNKTWTWV-NH2)	87%	105%	–	–	–
RKNNKTWTWE-NH2	–	–	17%	20%	–
RKIGGIWTWV-NH2	–	–	96%	103%	105%
Ac-RKNNKTWTWV-NH2 [Ac-…-NH2]	–	–	35%	50%	–
RKVNNVW-NH2 [RKVNNVW-NH2]	–	–	–	–	17%
RKVNNVWVWV-NH2	–	–	94%	102%	–
RENNKTWTWV-NH2	–	–	34%	94%	96%
RKNNKTW-NH2 [RKNNKTW-NH2]	–	–	31%	53%	99%
B1	–	–	67%	88%	97%
B2	–	–	85%	100%	99%
RKNNGTWTWV-NH2	–	–	46%	99%	99%
YKNNKTWTWV-NH2	–	–	9%	98%	104%
RKNNKTWTWV	–	–	14%	–	35%
RKNNKTWT-NH2 [RKNNKTWT-NH2]	–	–	26%	23%	34%
B3	–	–	95%	96%	–
KWKWNRTNVT-NH2 […-NH2 (control peptide)]	–	–	0%	0%	0%
RKVNNVWVWV	–	–	82%	98%	–
RKNNKTWTWVGTKKALTNEC-NH2	–	–	9%	–	47%
RKNNKTWTWV-NH2	–	–	13% and 14%	20% and 30%	–
CRKNNKTWTWV-NH2	–	–	87%	–	105%
